In patent US20110104667 (INFOSCITEX CORPORATION, published 2011):

Molecular target: recombinant anthrax protective antigen (rPA) (UniProt P13423 P13423:30-764)
Assay: ELONA
Conditions: tags: MW about 83 kDa; label: 5' biotin

Sequence of recombinant anthrax protective antigen (rPA) (P13423 30-764, one chain of several): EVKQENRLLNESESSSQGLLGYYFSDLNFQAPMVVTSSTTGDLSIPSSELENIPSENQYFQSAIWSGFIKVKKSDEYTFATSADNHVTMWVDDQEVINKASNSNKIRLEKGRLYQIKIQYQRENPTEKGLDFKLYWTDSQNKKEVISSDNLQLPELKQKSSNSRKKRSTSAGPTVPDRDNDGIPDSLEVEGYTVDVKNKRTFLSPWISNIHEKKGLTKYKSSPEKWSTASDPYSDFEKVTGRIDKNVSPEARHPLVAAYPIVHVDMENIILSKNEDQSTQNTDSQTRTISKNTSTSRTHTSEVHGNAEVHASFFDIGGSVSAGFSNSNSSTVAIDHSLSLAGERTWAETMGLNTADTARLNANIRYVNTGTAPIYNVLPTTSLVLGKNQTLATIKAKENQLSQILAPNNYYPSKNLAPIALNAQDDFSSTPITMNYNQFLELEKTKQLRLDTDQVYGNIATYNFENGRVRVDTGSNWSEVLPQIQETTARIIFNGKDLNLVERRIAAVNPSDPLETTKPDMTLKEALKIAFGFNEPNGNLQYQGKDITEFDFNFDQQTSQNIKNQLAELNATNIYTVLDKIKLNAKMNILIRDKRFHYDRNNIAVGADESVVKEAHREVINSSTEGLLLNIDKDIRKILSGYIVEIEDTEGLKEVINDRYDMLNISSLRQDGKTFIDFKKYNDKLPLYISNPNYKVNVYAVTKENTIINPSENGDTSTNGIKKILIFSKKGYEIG

B1: rPA DNA aptamer, biotinylated (ssDNA)
DNA: TACGACTCACTATAGGGATCCCGAGCTGCAATGGAGTGATTACTAGGGATGTGCGAGGCGCCGAATTCCCTTTAGTGAGGGTT
B1: binds.
